Measurements: patent publication US20250320478

Assays:
Test in all cases: cell_activity
[1] = system: ZFP3:G:D3A (synthetic construct); details: triple combination with ZFP8:G:K and ZFP6:G:hD3L; not tested alone
[2] = system: ZFP6:G:hD3L (synthetic construct); details: triple combination with ZFP8:G:K and ZFP3:G:D3A; not tested alone
[3] = system: ZFP8 (Pcsk9 ZFP, KRAB/DNMT3 effector fusions) (synthetic construct); details: upper end of 1.5-17 range for bi-partite ZFP8 ETRs in Hepa 1-6 Pcsk9tdTomato; tri-partite 2-8 fold; binding inferred from silencing

ZFP6:G:hD3L (synthetic construct), sequence (chain, as listed by the source): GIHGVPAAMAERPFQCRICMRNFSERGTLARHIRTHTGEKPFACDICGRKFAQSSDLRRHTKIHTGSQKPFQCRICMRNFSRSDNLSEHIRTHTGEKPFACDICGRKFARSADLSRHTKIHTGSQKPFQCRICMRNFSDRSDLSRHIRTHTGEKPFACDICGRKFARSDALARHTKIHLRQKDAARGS
ZFP3:G:D3A (synthetic construct), sequence (chain, as listed by the source): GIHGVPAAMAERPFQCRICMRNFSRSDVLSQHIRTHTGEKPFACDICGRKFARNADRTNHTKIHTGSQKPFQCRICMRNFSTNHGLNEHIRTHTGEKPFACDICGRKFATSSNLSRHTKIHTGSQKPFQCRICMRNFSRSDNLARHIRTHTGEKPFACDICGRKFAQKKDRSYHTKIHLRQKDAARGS

Pcsk9 promoter CpG island, ZFP3 target site
activity (fold silencing vs ZFPoff) [1]: 15

Pcsk9 promoter CpG island, ZFP6 target site
activity (fold silencing vs ZFPoff) [2]: 15

Pcsk9 promoter CpG island, ZFP8 target site
activity (fold silencing vs ZFPoff) [3]: 17
